Measurements: patent US20050025821A1, “Lipid-comprising drug delivery complexes and methods for their production” (priority 2001, published 2005)
Starred links: 1 amine or outer side, 2 acyl side, 3 side chain; linkers in the order of their positions; H or OH if unused. Suc = O=C(CCC(=O)[*:2])[*:1]

Experiments:
[1] = Surface zeta potential (Malvern zeta sizer); assay type: physicochemical; settings: 10 mol % in LPD, 5% dextrose USP pH 5.0
Experimental: LPDs were prepared as described by Li, S., et al., Gene Therapy, 1998. 5(7): p. 930-937. Lipid:protamine:DNA ratios of 12 nmol:0.9 μg:1 μg, 12 nmol:0.97 μg:1 μg, and 12 nmol:1 μg:1 μg were used for these experiments, as indicated. As a typical example, 150 μl of liposomes at 6mM were mixed with 197 μl of 5% dextrose USP followed by the addition of 153 μl of pre-compacted DNA at 490 μg/ml. This operation was performed under moderate vortex agitation (speed #3), and the resulting LPD solution contained 150 μg DNA/ml. […] The surface zeta potential was determined using a Malvern zeta sizer (Malvern Instrument Inc, Sacramento, Calif.).
Typically, 0.15 ml of mixed micelles prepared as describe above were mixed with 350 μl of DNA pre-compacted with protamine at a 2:1 protamine:DNA ratio under mild vortex agitation (speed 3). Particles formed spontaneously, i.e. solution became cloudy. […] Particle sizes were assessed as described above and typically were in the 100-200 nm range as determined using a N4Plus coulter (Beckman Coulter, Miami, Fla.) sizer in unimodal mode. The surface zeta-potential was determined using a Malvern zeta sizer (Malvern Instrument Inc, Sacramento, Calif.). […]
PPAA polymer was supplied by Dr. Allan Hoffman's laboratory (University of Washington, Seattle, Wash.). […] The surface zeta potential was determined using a Malvern zeta sizer (Malvern Instrument Inc, Sacramento, Calif). […]

[2] = Particle sizing (mean diameter, polydispersity; Coulter N4Plus, unimodal mode); assay type: physicochemical; settings: condensed DNA 2:1 μg:μg, DNA 0.143 mg/ml, second experiment (Table 18)
Experimental: The liposomes were prepared as follows: 6000 nmol of 1,2-dioleoyl-3-trimethylammonium-propane (DOTAP) (Avanti Polar Lipid Inc., Alabaster, Ala.) at 20 mg/ml in chloroform and 6000 nmol of cholesterol (Avanti Polar Lipid Inc., Alabaster, Ala.), also prepared at 20 mg/ml in chloroform (J. T. Baker, Phillipsburg N.J.), were mixed in a borosilicate tube and dried for 1 hr under nitrogen at 4 liters per minute (LPM) using a N-EVAP™ (Organomation, Berlin, Mass.). The resulting lipid films were hydrated in 2 ml of 5% USP dextrose (Abbott Laboratories, North Chicago, Ill.) to achieve a final lipid concentration of 6 mM. […]
LPDs were prepared as described by Li, S., et al., Gene Therapy, 1998. […] The surface zeta potential was determined using a Malvern zeta sizer (Malvern Instrument Inc, Sacramento, Calif.).
DLPDs were generated by a modified version of the method previously described by Harvie, P., F. M. Wong, and M. B. Bally, Biophys J, 1998. […] Particle sizes were assessed as described above and typically were in the 150-300 nm range.
Typically, 0.15 ml of mixed micelles prepared as describe above were mixed with 350 μl of DNA pre-compacted with protamine at a 2:1 protamine:DNA ratio under mild vortex agitation (speed 3). […] The surface zeta-potential was determined using a Malvern zeta sizer (Malvern Instrument Inc, Sacramento, Calif.). […]

KB cells = experiment: In vitro transfection (luciferase expression); assay type: cell-based; settings: 1 μg DNA/well
Experimental: The following day, the media was removed and replaced with 500 μl of fresh serum-free media.

Substance | decrease in the zeta-potential versus conventional LPD [1] | size (nm) [2] | increase in transfection activity when formulated with CHEMS:DOPE compared to peptide-compacted DNA alone (KB cells)
DSPE-PEG5K-succinyl-ACDCRGDCFCG-COOH ({DSPE-PEG5K-Suc}-ACDCRGDCFCG-OH; cysteine pairing not given here) [DSPE-PEG5K-RGD, targeting factor-pegylated lipid conjugate] | 15 mV | – | –
KHKHKHKHKGKHKHKHKHK | – | 25 nm | No change in the transfection activity
